Measured values as given in the DeepSol protein solubility set.

Assay: soluble on expression in E. coli; label from the status in PepcDB or PDB records

For “MSSKIFCKSWGAEYIAADVVRFRLWATGQQKVMLRLAGKDQEMQANGDGWFTLDVAGVTPGTEYNFVLSDGMVVPDPASRAQKTDVNGPSYVVDPGSYTWRNTGWKGSRWEQAVVYEMHTGTFTPEGTFRAAIAKLPYLAELGVTVIEVMPVAQFGGERGWGYDGVLLYAPHSAYGTPDDFKAFIDAAHGYGLSVVLDIVLNHFGPEGNYLPLLAPAFFHKERMTPWGNGIAYDVDAVRRYIIEAPLYWLTEYHLDGLRFDAIDQIEDSSARHVLVEIAQRIREDITDRPIHLTTEDSRNIISLHPRDQDGNAPLFTAEWNDDFHNAVHVFATGETQAYYNDFADAPEKHLARALAEGFAYQGEISPQTGEPRGVKSTGQPPVAFVDFIQNHDQVGNRAQGDRLITLAGAERTKVLLATLLLSPHIPLLFMGEEYGESRPFLFFTDFHGDLARAVREGRAKEFADHAGENVPDPNAPETFQRSKLNWKQQHSEEGKAWLAFTRELLLLRQKHIVPLLSAARESSGTVLQTAPGFIAVSWRFPGGTLSLALNISATTVLLPDLPGKTLFAWPNESTGSLSQHSLIVRLAQGESAS”, which “soluble on expression in E. coli” value is on record?
The value was “not soluble”.

With “MSLKKIILSIILISNYCYASDCFEITGKAYNIDPLILKAIAWNESKCKSGIKSKTNKNGTYDIGIMQINSSHLDLLSKFNISEDDLLNDACINISVAGYILASNIKSRGNTWDAVGAYNAGYFNTPNAVELRRQYAMKIYKTYNKLKNNEQIIDEGHHHHHH” as the sequence, how does the “soluble on expression in E. coli” value read?
The value was “not soluble”.

Which “soluble on expression in E. coli” value does the source give for “MLSEASSVQSPTVSIRRRTCVVCGSSTLNSYVTSFTRVPDKQEQWVTVLANGDAGFEDQLKASLATGRKYICYDHFDRQYFAQRKTDDGFELIRNRNPMAFKNATFIRHVDLRSTSSFVPDDSSEEPIPAKRLKIMSDLKGRGGELDPNSMTFLMKTIFLHVKKTMEEADEARRKHEIKEELD” here?
Its value is “not soluble”.

For “MNQLIFDFAAHDYPSFDKFLGTENAELVYVLRHKHGQFIYVWGEEGAGKSHLLQAWVAQALEAGKNAAYIDAASMPLTDAAFEAEYLAVDQVEKLGNEEQALLFSIFNRFRNSGKGFLLLGSEYTPQQLVIREDLRTRMAYCLVYEVKPLTDQEKIDALASMAAARQVTVDSEIFEYLLKHWRRDMDSLMMMLDTLDNYAVTMGKRITLPLLRQLLKQQETQLEHHHHHH”, which “soluble on expression in E. coli” value is on record?
Its value is “soluble”.

With “MAEGGTPVVATKPPVDNAKMLGELKLRLMHTKKGLLAIRGELQRRAEIWGAAQEEITALEKMASDAKERIQKQSDQKREERKLAAQKRKELKQKQKEEKKEESKDEKDGADDEKNDEN” as the sequence, how does the “soluble on expression in E. coli” value read?
The value was “not soluble”.

For “GPGSMTHNRSGAVRRKVVQHDFYDSADQVGGVVLLNNPTNGSWEYDEYLRLLTTKRYSRIPSWEAHSTAQCYFVCADGVYPKLQSYVKERQVSHPHLRLFQFFPLCDAVIGDMDSYVTSYEKDGCERPSSTPEGGYGTVDDIPVEVLDTIHHRCRSAAALFREVDGSVPDTPLNGWKMLHEEHSHPLLRPLWLHIQCQITTDFKKALTLLKRLRKRYPDENAVVLPPVLRSPGAARILETGGGVVDQRNCGCDNDPIQERELCVAASQVEALLLPTVVAVGAFGGRFDHEVGAISTMLSESHDAHIVLINLFNTVFACQGGGWTQIVRQPEYEDKTCGLVNYGRMTECETSGLLWNVVKGRGRPSVTNDFVFDFGAFISVCNIVRREVITVDLRCLLTSVGESPADATTATGASDCEAQRGRGPPVVFSILRRQKKEGG”, which “soluble on expression in E. coli” value is on record?
Its value is “not soluble”.

For “MNHRDKQIDSGSGSGENRRTYDCDICKRGFTNPQALGGHNNIHRRERERYPSSSSSSHSFPFSLPLPSQSPSSSTNFTNPPPYFPTIESYLHQGSQPPINPSHNTQYFGSSSSSRGGGRFAQGASHDLNLSLGLGSMNEDDDTHRSPPETGGSQPQDGDLDLDLRLGGHRHH”, which “soluble on expression in E. coli” value is on record?
The value was “soluble”.

For “MVRIIVDHSLILLYSLSAFEESKYISSEEQMQISEYINVDDKIIQRWFEIRRAPTQESWEPEVILPEAIAIFEKEFTTNPNPCSHTLEELRMKTHVQVDSINKWFDERRCAAEQNIKSDSEGSEASFSLCSSWGDTDKELKVDLKMA”, which “soluble on expression in E. coli” value is on record?
Its value is “not soluble”.

For “MSQTILFVCATGIATSTAVTEKVMEYCKEQGLNVNYSQTNVASLPGNTDGVALVVSTTKVPYELDVPVVNGLPIITGIGEEKVLAQIVSILKK”, which “soluble on expression in E. coli” value is on record?
Its value is “soluble”.

With “MAEKALATLKELAFLEDPSPVERDAAIQRFEYTFEAFWKALQAYLREKEGLEGASPKGVIRLAREVGLLRDEEARLALGMVDDRSLTVHTYNEPLARAIFRRLPDYARLMEQVLGRLRR” as the sequence, how does the “soluble on expression in E. coli” value read?
The value was “soluble”.

Which “soluble on expression in E. coli” value does the source give for “FSKTQRWAEPGEPICVVCGRYGEYICDKTDEDVCSLECKAKHLLQVKEKEEKS” here?
The value was “soluble”.

Which “soluble on expression in E. coli” value does the source give for “MTNNNQIGENKEQTIFDHKGNVIKTEDREIQIISKFEEPLIVVLGNVLSDEECDELIELSKSKLARSKVGSSRDVNDIRTSSGAFLDDNELTAKIEKRISSIMNVPASHGEGLHILNYEVDQQYKAHYDYFAEHSRSAANNRISTLVMYLNDVEEGGETFFPKLNLSVHPRKGMAVYFEYFYQDQSLNELTLHGGAPVTKGEKWIATQWVRRGTYK” here?
The value was “soluble”.

With “MMPTSTCGYPGMAEQSTVLYTAVGYMVGFVSLFNHTHSQDNFFHRGCYYGCDDDNMRFAFFSKAALEFLLRSNKKPDIIHCHDWQTGLIPIMLYEIYKYHGMEYQRVCYTIHNFKHQGMGGVGTLQATALNEASYYFQYNKLRDNFNPFALNLMKGGIIYSNAVTTVSPHHAVEAQTSE” as the sequence, how does the “soluble on expression in E. coli” value read?
The value was “not soluble”.

Which “soluble on expression in E. coli” value does the source give for “HHHHHHSSGLVPRGSHMMNPFHDLEPGPNVPEVVYALIEIPKGSRNKYELDKETGLLKLDRVLYTPFHYPVDYGIIPRTWYEDGDPFDIMVIMREPTYPLTIIEARPIGLFKMIDSGDKDYKVLAVPVEDPYFKDWKDISDVPKAFLDEIAHFFKRYKELEGKEIIVEGWEGAEAAKREILRAIEMYKEKFGKKE” here?
The value was “soluble”.

With “MAGDQELELRFDVPLYTLAEASRYLVVPRATLATWADGYERRPANAPAVQGQPIITALPHPTGSHARLPFVGIAEAYVLNAFRRAGVPMQRIRPSLDWLIKNVGPHALASQDLCTDGAEVLWRFAERSGEGSPDDLVVRGLIVPRSGQYVFKEIVEHYLQQISFADDNLASMIRLPQYGDANVVLDPRRGYGQPVFDGSGVRVADVLGPLRAGATFQAVADDYGVTPDQLRDALDAIAA” as the sequence, how does the “soluble on expression in E. coli” value read?
The value was “soluble”.

Which “soluble on expression in E. coli” value does the source give for “MSLYYICPYFLDKNGHRVQKTMVGKVALDEQKLTPQKFSITYPLIINLQDEKVKTKVNEDIVNQVSELFKNQVLLTEKIDLSEVFGAYEIGVNRNYILSILFSIYTYMNRAAHGLTVYSSITVNTRTGKVYSFSDLFNPKMNYLGELTTIVKKYIKDNNIQLIEDYKGVTNDQEFYLTNDKLVLYYQVYAYTPYYYGLFRIPIPYTEIKNLLGPMSPINNLIEGHHHHHH” here?
Its value is “not soluble”.

For “MLSIKHLTKIYSGNKKAVDDISLDIQSGEFIAFIGTSGSGKTTALRMINRMIEATEGQIEIDGKDVRSMNPVELRRNIGYVIQQIGLMPHMTIKENIVLVPKLLKWTKEEKDKRAKELIKLVDLPESFLERYPAELSGGQQQRIGVVRALAAEQDIILMDEPFGALDPITRDTLQDLVKTLQRKLGKTFIFVTHDMDEAIKLADKICIMSEGKVVQFDTPDNILRHPANDFVRDFIGQNRLIQDRPNDKTVEGVMIKPITIQAEATLNDAVHIMRQKRVDTIFVVDSNNHLLGFLDIEDINQGIRGHKSLRDTMQQHIYTVQIDSKLQDSVRTILKRNVRNVPVVDDQQRLVGLITRANVVDIVYDTIWGDSEDTVQTEHVGEDTASSKVHEQHTTNVKVRDIGDDKS”, which “soluble on expression in E. coli” value is on record?
The value was “not soluble”.

For “EVQLLESGGGLVQPGGSLRLSCAASGFTFSRYVMWWVRQAPGKGLEWVSYIWPSGGNTYYADSVKGRFTISRDNSKNTLYLQMNSLRAEDTAVYYCASSYDFWSNAFDIWGQGTMVTVSSASTKGPSVFPLAPCSRSTSESTAALGCLVKDYFPEPVTVSWNSGALTSGVHTFPAVLQSSGLYSLSSVVTVPSSSLGTKTYTCNVDHKPSNTKVDKRVES”, which “soluble on expression in E. coli” value is on record?
The value was “soluble”.

Which “soluble on expression in E. coli” value does the source give for “MTAKMETTFYDDALNASFLPSESGPYGYSNPKILKQSMTLNLADPVGSLKPHLRAKNSDLLTSPDVGLLKLASPELERLIIQSSNGHITTTPTPTQFLCPKNVTDEQEGFAEGFVRALAELHSQNTLPSVTSAAQPVNGAGMVAPAVASVAGGSGSGGFSASLHSEPPVYANLSNFNPGALSSGGGAPSYGAAGLAFPAQPQQQQQPPHHLPQQMPVQHPRLQALKEEPQTVPEMPGETPPLSPIDMESQERIKAERKRMRNRIAASKCRKRKLERIARLEEKVKTLKAQNSELASTANMLREQVAQLKQKVMNHVNSGCQLMLTQQLQTF” here?
Its value is “soluble”.

With “SLVNLKVNLLLVDYRGYGKSEGEASEEGLYLDSEAVLDYVMTRPDLDKTKIFLFGRSLGGAVAIHLASENSHRISAIMVENTFLSIPHMASTLFSFFPMRYLPLWCYKNKFLSYRKISQCRMPSLFISGLSDQLIPPVMMKQLYELSPSRTKRLAIFPDGTHNDTWQCQGYFTALEQFIKEVVKSHSPEEMAKTSSNVTII” as the sequence, how does the “soluble on expression in E. coli” value read?
Its value is “soluble”.

Which “soluble on expression in E. coli” value does the source give for “MGSDKIHHHHHHMLIKTVLNKFERFKSFIYGDCRLAKVGGSEALVIDIKARRNSKPECPECGKRGKTYDTQPARLFEYVPIWAFKVFFRYAPRRVLCPIHGVKVESLPWGYGKEQMTISYQVYLARWARRLSWKEVAEIFKTSWDSIFRAVQYAVDYGLANRNLDGVTEIGVDEIAVFKGHQYLTMVYQLNAGVRRLLWCGPQRRIRTLLRFFREFGKERSAKLKYVCSDMWAPYLKVIAKRAPNAVNILDRFHIMRKFNEAIDEVRRTEAKEFKAAKQENVLEKGRWLLLKRPENLSEKQTSRLGDLLKLNLSSIKAYLLREDFQQFWDYQRSDFAGKFLDDWVIRTMQTDLEPMKKVARMLRNHKPMILNWFKAKGRLSSGAVEGLNLKAKLTIRKAYGFRTIKCLQVALYHTLGDLPEPLCHHRFC” here?
The value was “not soluble”.

For “MEPIWRNYPYPTYPGHHNFQFDPLLSDGSHTGVNQLGGVFVNGRPLADTVRAQIVEMSQHGTRPCDISRQLKVSHGCVSKILGRYYSTGSVRPGVIGGSKPKVATPRVVECIAGYKRANPTMFAWEIRQKLIEDQICGEENVPSVSSINRIVRNKSFMAQLAAPTSVTSSAARPSSATSHHQRSPPRGVQQHMQQSTSVQQLQQLQLTSAATVNSLMTPPAFAMPGTAYSINGLLGTLPQPSLLDDKFTNLSTQSADMSLVYSTGLVGEHDWTMRTPMVILPQNYCGQL”, which “soluble on expression in E. coli” value is on record?
Its value is “not soluble”.

With “MSLEKVQLPSVPAFKGHSFLAFPTLRAYHTLRLAMEFRALETEGLLLYNGNARGKDFLALALLDGHVQFRFDTGSGPAVLTSLVPVEPGRWHRLELSRHWRQGTLSVDGEAPVVGESPSGTDGLNLDTKLYVGGLPEEQVATVLDRTSVGIGLKGCIRMLDINNQQLELSDWQRAVVQSSGVGEEGHHHHHH” as the sequence, how does the “soluble on expression in E. coli” value read?
Its value is “soluble”.

For “MAELSDQEMLRYNRQIILRGFDFDGQEALKDSRVLIVGLGGLGCAASQYLASAGVGNLTLLDFDTVSLSNLQRQTLHSDATVGQPKVESARDALTRINPHIAITPVNALLDDAELAALIAEHDLVLDCTDNVAVRNQLNAGCFAAKVPLVSGAAIRMEGQITVFTYQDGEPCYRCLSRLFGENALTCVEAGVMAPLIGVIGSLQAMEAIKMLAGYGKPASGKIVMYDAMTCQFREMKLMRNPGCEVCGQ”, which “soluble on expression in E. coli” value is on record?
Its value is “soluble”.

Which “soluble on expression in E. coli” value does the source give for “STLSRFAYNGKRCPSSYNILDNSKIISEECRKELTALLHHYYPIEIDPHRTVKEKLPHMVEWWTKAHNLLCQQKIQKFQIAQVVRESNAMLREGYKTFFNTLYHNNIPLFIFSAGIGDILEEIIRQMKVFHPNIHIVSNYMDFNEDGFLQGFKGQLIHTYNKNSSVCENCGYFQQLEGKTNVILLGDSIGDLTMADGVPGVQNILKIGFLNDKVEERRERYMDSYDIVLEKDETLDVVNGLLQHILCQGVQLEMQGP” here?
The value was “soluble”.

For “FKAHCRRSVEGDTMLSLKAVSPTRLLKNKFYQDVFAAEQRGASVEELRELLGRGRAKQGIFEGDLHEGELEIGQAVSQISHAETVAEIMVDLVDGYKRSLAGMPTEI”, which “soluble on expression in E. coli” value is on record?
Its value is “not soluble”.
